According to patent US7432061B2, “Assays for measuring matrix metalloproteinase activities” (BioZyme, Inc., priority 2002, dated 2008):

Tests used:
gelatinase A = molecular target: T1, gelatinase A (Homo sapiens, UniProt P08253); assay: Inhibition with type II collagen, FlSub3 cleavage; format: biochemical; conditions: for Improvement In Selectivity (Gel-A v Col-3): 44 ug/ml Type II Collagen vs no Type II Collagen, FlSb3; for Average Percent Inhibition from 1.1 to 6.6 Hours / Average Percent Inhibition: GELA(.025 nM)
T1 sequence (P08253 110-660): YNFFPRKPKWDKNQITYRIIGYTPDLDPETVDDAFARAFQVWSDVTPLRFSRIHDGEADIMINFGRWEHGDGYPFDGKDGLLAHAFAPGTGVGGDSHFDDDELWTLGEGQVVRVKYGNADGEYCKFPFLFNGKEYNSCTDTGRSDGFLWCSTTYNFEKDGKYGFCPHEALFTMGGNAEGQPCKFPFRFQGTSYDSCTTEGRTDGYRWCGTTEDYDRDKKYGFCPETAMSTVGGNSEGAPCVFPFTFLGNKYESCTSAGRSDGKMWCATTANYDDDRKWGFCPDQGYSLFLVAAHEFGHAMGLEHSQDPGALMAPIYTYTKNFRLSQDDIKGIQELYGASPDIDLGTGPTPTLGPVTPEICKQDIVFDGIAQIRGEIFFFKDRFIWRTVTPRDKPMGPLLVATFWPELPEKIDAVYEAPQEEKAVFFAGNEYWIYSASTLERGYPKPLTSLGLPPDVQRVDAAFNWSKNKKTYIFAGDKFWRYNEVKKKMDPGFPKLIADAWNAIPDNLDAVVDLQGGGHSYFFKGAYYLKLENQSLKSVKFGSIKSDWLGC
Protocol: (§1) In a 96 well plate, collagenase 3 (0.013 nM), collagenase 1 (1.25 nM), stromelysin 1 (0.8 nM), gelatinase A (0.025 nM), or gelatinase B (0.008 nM) were reacted with 20 uM FlSub3 in standard assay buffer in the presence of varying concentrations of bovine type II collagen (0.18-44 ug/ml). The type II collagen, a 1 mg/ml stock in 0.5M acetic acid, was transferred into assay buffer by passing the material through a biospin P6 column from Amersham. The reaction was initiated by addition of substrate to enzyme containing either buffer or an appropriate amount of type II collagen. Data points were taken every 15 min over a period of 15 hours using an excitation and emission wavelength of 350 and 485 nm respectively. The usable data (1-6 hours), was taken and the percent inhibition by type II collagen was calculated for each enzyme and plotted as a function of inhibitor concentration and time in the assay. It should be noted that the percent inhibition varies with time as the bovine substrate is consumed during the reaction course.

collagenase 3 = collagenase 3 (Homo sapiens, UniProt P45452); assay: Inhibition with type II collagen, FlSub3 cleavage; format: biochemical; conditions: for Average Percent Inhibition from 1.1 to 6.6 Hours / Average Percent Inhibition: COL3(.013 nM)
Protocol: as §1

[1] = TypeIICOL(1.6 ug/ul), FISb3, hour 0.10 to 1.10
[2] = TypeIICOL(1.6 ug/ul), FISb3, hour 1.10 to 2.10
[3] = TypeIICOL(1.6 ug/ul), FISb3, hour 1.10 to 6.60
[4] = TypeIICOL(1.6 ug/ul), FISb3, hour 2.10 to 3.10
[5] = TypeIICOL(1.6 ug/ul), FISb3, hour 3.10 to 4.10
[6] = TypeIICOL(1.6 ug/ul), FISb3, hour 4.10 to 5.10
[7] = TypeIICOL(1.6 ug/ul), FISb3, hour 5.10 to 6.10
[8] = TypeIICOL(4.9 ug/ul), FISb3, hour 0.10 to 1.10
[9] = TypeIICOL(4.9 ug/ul), FISb3, hour 1.10 to 2.10
[10] = TypeIICOL(4.9 ug/ul), FISb3, hour 1.10 to 6.60
[11] = TypeIICOL(4.9 ug/ul), FISb3, hour 2.10 to 3.10
[12] = TypeIICOL(4.9 ug/ul), FISb3, hour 3.10 to 4.10
[13] = TypeIICOL(4.9 ug/ul), FISb3, hour 4.10 to 5.10
[14] = TypeIICOL(4.9 ug/ul), FISb3, hour 5.10 to 6.10
[15] = TypeIICOL(15 ug/ul), FISb3, hour 0.10 to 1.10
[16] = TypeIICOL(15 ug/ul), FISb3, hour 1.10 to 2.10
[17] = TypeIICOL(15 ug/ul), FISb3, hour 1.10 to 6.60
[18] = TypeIICOL(15 ug/ul), FISb3, hour 2.10 to 3.10
[19] = TypeIICOL(15 ug/ul), FISb3, hour 3.10 to 4.10
[20] = TypeIICOL(15 ug/ul), FISb3, hour 4.10 to 5.10
[21] = TypeIICOL(15 ug/ul), FISb3, hour 5.10 to 6.10
[22] = TypeIICOL(44 ug/ul), FISb3, hour 0.10 to 1.10
[23] = TypeIICOL(44 ug/ul), FISb3, hour 1.10 to 2.10
[24] = TypeIICOL(44 ug/ul), FISb3, hour 1.10 to 6.60
[25] = TypeIICOL(44 ug/ul), FISb3, hour 2.10 to 3.10
[26] = TypeIICOL(44 ug/ul), FISb3, hour 3.10 to 4.10
[27] = TypeIICOL(44 ug/ul), FISb3, hour 4.10 to 5.10
[28] = TypeIICOL(44 ug/ul), FISb3, hour 5.10 to 6.10
[29] = TypeIICOL(.18 ug/ul), FISb3, hour 0.10 to 1.10
[30] = TypeIICOL(.18 ug/ul), FISb3, hour 1.10 to 2.10
[31] = TypeIICOL(.18 ug/ul), FISb3, hour 1.10 to 6.60
[32] = TypeIICOL(.18 ug/ul), FISb3, hour 2.10 to 3.10
[33] = TypeIICOL(.18 ug/ul), FISb3, hour 3.10 to 4.10
[34] = TypeIICOL(.18 ug/ul), FISb3, hour 4.10 to 5.10
[35] = TypeIICOL(.18 ug/ul), FISb3, hour 5.10 to 6.10
[36] = TypeIICOL(.55 ug/ul), FISb3, hour 0.10 to 1.10
[37] = TypeIICOL(.55 ug/ul), FISb3, hour 1.10 to 2.10
[38] = TypeIICOL(.55 ug/ul), FISb3, hour 1.10 to 6.60
[39] = TypeIICOL(.55 ug/ul), FISb3, hour 2.10 to 3.10
[40] = TypeIICOL(.55 ug/ul), FISb3, hour 3.10 to 4.10
[41] = TypeIICOL(.55 ug/ul), FISb3, hour 4.10 to 5.10
[42] = TypeIICOL(.55 ug/ul), FISb3, hour 5.10 to 6.10

Substance: Type II Collagen: bovine type II collagen, full length MMP substrate used as inhibitor of gelatinases
- Improvement In Selectivity (Gel-A v Col-3) (gelatinase A): 80 fold
- Improvement In Selectivity (Gel-A v Col-3) (gelatinase A; listed as collagen): approximately 80 fold
- Average Percent Inhibition from 1.1 to 6.6 Hours (gelatinase A; Type II Collagen 0.18 ug/ml): 2%
- Average Percent Inhibition from 1.1 to 6.6 Hours (gelatinase A; Type II Collagen 0.54 ug/ml): 6%
- Average Percent Inhibition from 1.1 to 6.6 Hours (gelatinase A; Type II Collagen 1.63 ug/ml): −52%
- Average Percent Inhibition from 1.1 to 6.6 Hours (gelatinase A; Type II Collagen 4.89 ug/ml): 32%
- Average Percent Inhibition from 1.1 to 6.6 Hours (gelatinase A; Type II Collagen 14.67 ug/ml): 56%
- Average Percent Inhibition from 1.1 to 6.6 Hours (gelatinase A; Type II Collagen 44.00 ug/ml): 83%
- Average Percent Inhibition (gelatinase A; [1]): −27%
- Average Percent Inhibition (gelatinase A; [2]): 4%
- Average Percent Inhibition (gelatinase A; [3]): −52%
- Average Percent Inhibition (gelatinase A; [4]): −11%
- Average Percent Inhibition (gelatinase A; [5]): −37%
- Average Percent Inhibition (gelatinase A; [6]): −68%
- Average Percent Inhibition (gelatinase A; [7]): −104%
- Average Percent Inhibition (gelatinase A; [8]): 37%
- Average Percent Inhibition (gelatinase A; [9]): 43%
- Average Percent Inhibition (gelatinase A; [10]): 32%
- Average Percent Inhibition (gelatinase A; [11]): 46%
- Average Percent Inhibition (gelatinase A; [12]): 37%
- Average Percent Inhibition (gelatinase A; [13]): 27%
- Average Percent Inhibition (gelatinase A; [14]): 19%
- Average Percent Inhibition (gelatinase A; [15]): 56%
- Average Percent Inhibition (gelatinase A; [16]): 64%
- Average Percent Inhibition (gelatinase A; [17]): 56%
- Average Percent Inhibition (gelatinase A; [18]): 70%
- Average Percent Inhibition (gelatinase A; [19]): 64%
- Average Percent Inhibition (gelatinase A; [20]): 53%
- Average Percent Inhibition (gelatinase A; [21]): 41%
- Average Percent Inhibition (gelatinase A; [22]): 58%
- Average Percent Inhibition (gelatinase A; [23]): 78%
- Average Percent Inhibition (gelatinase A; [24]): 83%
- Average Percent Inhibition (gelatinase A; [25]): 86%
- Average Percent Inhibition (gelatinase A; [26]): 87%
- Average Percent Inhibition (gelatinase A; [27]): 85%
- Average Percent Inhibition (gelatinase A; [28]): 82%
- Average Percent Inhibition (gelatinase A; [29]): 3%
- Average Percent Inhibition (gelatinase A; [30]): 9%
- Average Percent Inhibition (gelatinase A; [31]): 2%
- Average Percent Inhibition (gelatinase A; [32]): 7%
- Average Percent Inhibition (gelatinase A; [33]): 3%
- Average Percent Inhibition (gelatinase A; [34]): 0%
- Average Percent Inhibition (gelatinase A; [35]): −3%
- Average Percent Inhibition (gelatinase A; [36]): 2%
- Average Percent Inhibition (gelatinase A; [37]): 11%
- Average Percent Inhibition (gelatinase A; [38]): 6%
- Average Percent Inhibition (gelatinase A; [39]): 12%
- Average Percent Inhibition (gelatinase A; [40]): 8%
- Average Percent Inhibition (gelatinase A; [41]): 4%
- Average Percent Inhibition (gelatinase A; [42]): −1%
- inhibition of gelatinase A by type II collagen (gelatinase A; highest concentration (44 ug/ml), six hour time course, FlSub3): Almost complete inhibition
- Average Percent Inhibition from 1.1 to 6.6 Hours (collagenase 3; Type II Collagen 0.18 ug/ml): −8%
- Average Percent Inhibition from 1.1 to 6.6 Hours (collagenase 3; Type II Collagen 0.54 ug/ml): −11%
- Average Percent Inhibition from 1.1 to 6.6 Hours (collagenase 3; Type II Collagen 1.63 ug/ml): −11%
- Average Percent Inhibition from 1.1 to 6.6 Hours (collagenase 3; Type II Collagen 4.89 ug/ml): −28%
- Average Percent Inhibition from 1.1 to 6.6 Hours (collagenase 3; Type II Collagen 14.67 ug/ml): −44%
- Average Percent Inhibition from 1.1 to 6.6 Hours (collagenase 3; Type II Collagen 44.00 ug/ml): −53%
- Average Percent Inhibition (collagenase 3; [1]): 16%
- Average Percent Inhibition (collagenase 3; [2]): −4%
- Average Percent Inhibition (collagenase 3; [3]): −11%
- Average Percent Inhibition (collagenase 3; [4]): −15%
- Average Percent Inhibition (collagenase 3; [5]): −13%
- Average Percent Inhibition (collagenase 3; [6]): −12%
- Average Percent Inhibition (collagenase 3; [7]): −11%
- Average Percent Inhibition (collagenase 3; [8]): 8%
- Average Percent Inhibition (collagenase 3; [9]): −31%
- Average Percent Inhibition (collagenase 3; [10]): −28%
- Average Percent Inhibition (collagenase 3; [11]): −38%
- Average Percent Inhibition (collagenase 3; [12]): −31%
- Average Percent Inhibition (collagenase 3; [13]): −25%
- Average Percent Inhibition (collagenase 3; [14]): −21%
- Average Percent Inhibition (collagenase 3; [15]): 6%
- Average Percent Inhibition (collagenase 3; [16]): −48%
- Average Percent Inhibition (collagenase 3; [17]): −44%
- Average Percent Inhibition (collagenase 3; [18]): −59%
- Average Percent Inhibition (collagenase 3; [19]): −50%
- Average Percent Inhibition (collagenase 3; [20]): −41%
- Average Percent Inhibition (collagenase 3; [21]): −34%
- Average Percent Inhibition (collagenase 3; [22]): 2%
- Average Percent Inhibition (collagenase 3; [23]): −55%
- Average Percent Inhibition (collagenase 3; [24]): −53%
- Average Percent Inhibition (collagenase 3; [25]): −71%
- Average Percent Inhibition (collagenase 3; [26]): −60%
- Average Percent Inhibition (collagenase 3; [27]): −49%
- Average Percent Inhibition (collagenase 3; [28]): −41%
- Average Percent Inhibition (collagenase 3; [29]): 6%
- Average Percent Inhibition (collagenase 3; [30]): −9%
- Average Percent Inhibition (collagenase 3; [31]): −8%
- Average Percent Inhibition (collagenase 3; [32]): −10%
- Average Percent Inhibition (collagenase 3; [33]): −8%
- Average Percent Inhibition (collagenase 3; [34]): −7%
- Average Percent Inhibition (collagenase 3; [35]): −6%
- Average Percent Inhibition (collagenase 3; [36]): 14%
- Average Percent Inhibition (collagenase 3; [37]): −11%
- Average Percent Inhibition (collagenase 3; [38]): −11%
- Average Percent Inhibition (collagenase 3; [39]): −15%
- Average Percent Inhibition (collagenase 3; [40]): −12%
- Average Percent Inhibition (collagenase 3; [41]): −10%
- Average Percent Inhibition (collagenase 3; [42]): −10%
- inhibition of collagenase 3 by type II collagen (collagenase 3; FlSub3): not observed
- increase in specificity of collagenase 3 (factor) (collagenase 3; highest concentration of collagen, FlSb3): 2.5
- effect on collagenase 3 at the highest concentrations of type II collagen (collagenase 3; highest concentrations, FlSub3): activation, rather than inhibition
